T1: recombinant, soluble human ASGR-1 (human, UniProt P07306 62-291)
T1 construct: biotinylated in the binning assay; also called soluble huASGR-1; Soluble ASGR-1 (Amgen)
T1 sequence: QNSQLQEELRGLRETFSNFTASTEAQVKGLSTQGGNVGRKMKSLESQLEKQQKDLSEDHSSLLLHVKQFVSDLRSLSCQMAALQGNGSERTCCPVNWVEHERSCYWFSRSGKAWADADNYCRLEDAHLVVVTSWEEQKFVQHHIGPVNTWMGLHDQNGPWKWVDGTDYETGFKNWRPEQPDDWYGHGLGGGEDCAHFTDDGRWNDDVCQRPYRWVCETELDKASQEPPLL


Tests used:
[1] = biological target: T1, recombinant, soluble human ASGR-1; assay: Octet BLI dissociation, pH 5.6 plus calcium
Outline: (§1)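 Antibodies were captured on anti-human Fc biosensors, and soluble ASGR-1 (6 ug/ml) was associated for 2 min in Tris buffer containing 1 mM CaCl2 at pH 7.4, followed by 10 min dissociation under each test condition. The signal at the end of association was set as 100%. Percent ASGR-1 still bound after 1 min of dissociation was compared with the pH 7.4 plus calcium control, and >10% extra dissociation was scored as sensitive.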

[2] = biological target: T1, recombinant, soluble human ASGR-1; assay: Octet BLI dissociation, pH 5.6 minus calcium
Outline: as §1

[3] = biological target: T1, recombinant, soluble human ASGR-1; assay: Octet BLI dissociation, pH 7.4 minus calcium
Outline: as §1

Row | Binder | % Change Compared to pH 7.4 + Calcium [1] [%] | % Change Compared to pH 7.4 + Calcium [2] [%] | % Change Compared to pH 7.4 + Calcium [3] [%]
1 | 204G6 (antibody, V domains shown, hybridoma mAb) VH: QVQLVESGGGVVQPGRSLRLSCTASGFTFSSYGMHWVRQAPGKGLEWVAVIWYDGSNKNYADSVKGRFTISRDNSKNTLYLQMNSLRAEDTAVYYCARDRGVGYDGMDVWGQGTTVTVSS VL: DIRMTQSPSSLSASVGDRITITCRTSQGIGNYLAWFQQKPGKAPKSLIYAASSLQSGVPSRFSGSGSGTDFTLTISSLQPEDFATYYCQHYLSYPLTFGGGTKVEIK | -11 | -10 | -5
2 | 190F12 (antibody, V domains shown, hybridoma mAb) VH: QVQLVESGGGVVQPGRSLRLSCAASGFTFRNYGMHWVRQAPGKGLEWVAVIWFDGSNDYYADSVKGRFTISRDNSKNTLSLQMNSLRAEDTAVYYCARDRSVGYDGLDVWGQGTTVTVSS VL: DIQMTQSPSSLSASVGDRVTITCRASQGIGKYLAWFQQKPGKAPKSLIYAASSLQSGVPSKFSGSGSGTDFTLTISSLQPDDFATYYCQRYDTYPFTFGPGTKVDIK | -6 | -6 | -1
3 | 190H9 (antibody, V domains shown, hybridoma mAb) VH: QVQLVESGGGVVQPGRSLRLSCAASGFTFRNYGMHWVRQAPGKGLEWVAVIWFDGSNDYYADSVKGRFTISRDNSKNTLSLQMNSLRAEDTAVYYCARDRSVGYDGLDVWGQGTTVTVSS VL: DIQMTQSPSSLSASVGDRVTITCRASQGIGKYLAWFQQKPGKALKSLIYAASSLQSGVPSKFSGSGSGTDFTLTISSLQPDDFATYYCQRYDTYPFTFGPGTKVDIK | -6 | -7 | -1
4 | 192C10 (antibody, V domains shown, hybridoma mAb) VH: QVQLVESGGGVVQPGRSLRLSCASSGFTFRNYGMHWVRQAPGKGLKWVAVIWFDGSNDYYADSVKGRFTISRDNSKNTLSLQMNSLRAEDTAVYYCARDRSVGYDGLDVWGQGTTVTVSS VL: DIQMTQSPSSLSASVGDRVTITCRASQGIGKYLAWFQQKPGKAPKSLIYAASSLQSGVPSKFSGSGSGTDFTLTISSLQPDDFATYYCQRYDTYPFTFGPGTKVDFK | -6 | -6 | -1
5 | 197E11 (antibody, V domains shown, hybridoma mAb) VH: QVQLVESGGGVVQPGRSLRLSCAASGFTFRNYGMHWVRQAPGKGLEWVAVIWFDGSNDYYADSVKGRFTISRDNSKNTLSLQMNSLRAEDTAVYYCARDRSVGYDGLDVWGQGTTVTVSS VL: DIQMTQSPSSLSASVGDRVTITCRASQGINKYLSWFQQKPGKAPKSLIYAASSVQSGVPSKFSGSGSGTDFTLTISRLQPDDFATYYGQRYDTYPFTFGPGTKVDIK | -5 | -4 | -1
6 | 192E4 (antibody, V domains shown, hybridoma mAb) VH: QVQLVESGGGVVQPGRSLRLSCAASGFTFSSYGMHWVRQAPGKGLEWVAVIWYDGSNKNYVDSVRGRFTISRDNSKNTLYLQMNSLRAEDTAVYYCARDRSVGYDGMDVWGQGTTVTVSS VL: DIQMTQSPSSLSASVGDRVTITCRASQGIGNYLAWFQQKPGKAPKSLIYVVSSLQSGVPSRFSGSGSGTDFTLTISSLQPEDFATYYCQRYDTYPFTFGPGTKVDIK | -9 | -8 | -2
7 | 194B7 (antibody, V domains shown, hybridoma mAb) VH: QVQLVESGGGVVQPGRSLRLSCAASGFTFSSYGMHWVRQAPGKGLEWVAVIWYDGSNKNYADSVKGRFTISRDNSKNTLYLQMNSLRAEDTAVYYCARDRSKGYDGMDVWGQGTTVTVSS VL: DIQMTQSPSSLSASVGDRVTITCRASQGISKYLAWFQQKPGKAPKSLIYGASRLQSGVPSKFSGSGSGTDFTLTISSLQPEDFATYYCQHYLNYPLTFGQGTRLEIK | -4 | -4 | 1
8 | 197G3 (antibody, V domains shown, hybridoma mAb) VH: QVQLVESGGGVVQPGRSLRLSCVASGFTFSSHGMHWVRQAPGKGLEWVAVIWYDGSNKNYADSVKGRFTISRDNSKNTLYLQMNSLRAEDTAVYYCARDPSVGYDGMDVWGQGTTVTVSS VL: DIQMTQSPSSLSASVGDRVTITCRASQGIGNHLAWFQQKPGKAPKSLIYAASSLQSGVPSKFSGSRSGTDFSLTISSLQPEDFATYYCQQYSNYPVTFGPGTKVDIK | -3 | -3 | 2
9 | 213B3 (antibody, V domains shown, hybridoma mAb) VH: QVQLVESGGGVVQPGRSLRLSCAASGFTFSSYGMHWVRQAPGKGLEWVAVIWYDGSNKNYADSVKGRFTISRDNSKNTLYLQMNSLRAEDTAVYYCARDRTVGYDGFDIWGQGTMVTVSS VL: DIQMTQSPSSLSASVGDRVTITCRASQGIGKYLAWFQQKPGKAPKSLISAASSVLSGVPSKFSGSGSGTDFTLTISSLQPEDFATYYCQKYDTYPFTFGPGTKVDIK | -7 | -3 | -1
10 | 219H1 (antibody, V domains shown, hybridoma mAb) VH: QVQLVESGGGVVQPGRSLRLSCAASGFTFSRYGMHWVRQAPGKGLEWVAVIWYDGSNKHYADSVKGRFTISRDNSKNTLYLQMNSLRGEDTAVYYCARDRGVGYNGMDVWGQGTTVTVSS VL: DIQMTQSPSSQSASVGDRVTITCRASQGISNYLDWFQQKPGKAPKSLIYSASNLQSGVPSKFSGSRSGTDFTLTISSLQPEDFATYYCQHYSNYPLTFGGGTKVEIK | -3 | 1 | 2
11 | 74C8 (antibody, V domains shown, hybridoma mAb) VH: QVQLVESGGGVVQPGRSLRLSCAASGFTFSSYGMHWVRQAPGKGLEWVAVIWYDGSNKNYADSVKGRFTISRDNSKNTLYLQMNSLRAEDTAVYYCARDGSYGYDGLDYWGQGTLVTVSS VL: DIQMTQSPSSLSASVGDRVTITCRASQGIGKYLAWFQQKPGKAPKSLIYTTSNLQSGAPSKFSGSGSGTDFTLTISSLQYEDFATYYCQQYSNYPLTFGGGTKVEIN | -7 | -3 | 1
12 | 74G6 (antibody, V domains shown, hybridoma mAb) VH: QVQLVESGGGVVQPGRSLRLSCAASGFTFSSYGMHWVRQAPGKGLEWVAVIWYDGSNKNYADSVKGRFTISRDNSKNTLYLQMNSLRAEDTAVYYCARDGSYGYDGLDYWGQGTLVTVSS VL: DIQMTQSPSSLSASVGDRVTITCRASQGIGKYLAWFQQKPGKAPKSLIYTTSSLQSGAPSKFSGSGSGTDFTLTISSLQYEDFATYYCQQYSNYPLTFGGGTKVEIN | -9 | -4 | 1
13 | 75G3 (antibody, V domains shown, hybridoma mAb) VH: QVQLQQWGAGLLKPSETLSLTCAVYGGSLSGSYWSWIRQPPGKGLEWIGEINLSGSTNYNPSLKSRVTISVDTSKSQFSLTLRSVTAADTAVYYCARDYGGLDYWGQGTLVTVSS VL: EIVLTQSPGTLSLSPGERATLSCRARQNVDSSYLAWYQQKPGQAPRLLIYGASSRATGIPDRFSGSGSGTDFTLTISRLEPEDFAVFYCQQYERSPWTFGQGTKVEIK | -1 | 2 | -1

From US20190248902A1 (published 2019)
